Measurements as given in PMC5714350.

What was measured:
[1] = target: P27838; test: dynamic light scattering; CyaY 2 mg/ml (0.16 mM) with ammonium iron (II) sulfate, Fe2+:protein 1:1, 2:1, 4:1, 6:1, 8:1, 10:1; 1 h at 30°C; volume distribution; conditions: other: dynamic light scattering
[2] = target: P27838; test: dynamic light scattering; CyaY with Fe2+ 6:1 (DFO also 8:1) for 15 min, then chelator (deferiprone, DFO or BIPY) at 3 times the amount of iron; conditions: other: dynamic light scattering

B1: E. coli frataxin CyaY (protein)
chain: MNDSEFHRLADQLWLTIEERLDDWDGDSDIDCEINGGVLTITFENGSKIIINRQEPLHQVWLATKQGGYHFDLKGDEWICDRSGETFWDLLEQAATQQAGETVSFR
[1]
  % of particles with hydrodynamic radius 3.0–5.9 nm (oligomers), with iron (Fe2+ 6:1): 77%
  % of particles with hydrodynamic radius 6–8.5 nm (oligomers), with iron (Fe2+ 8:1): about 74% of the particles having a hydrodynamic radius in the range of 6–8.5 nm
  % of particles with hydrodynamic radius 8.5–14 nm (oligomers), with iron (Fe2+ 6:1): 23%
  % of particles with hydrodynamic radius 8.5–14 nm (oligomers), with iron (Fe2+ 8:1): (25% and 1%, respectively, not shown)
  % of particles with hydrodynamic radius 8.5–14 nm (oligomers), with iron (Fe2+ 10:1): 8.5–14 nm (83%)
  % of particles with hydrodynamic radius 26–40 nm (oligomers), with iron (Fe2+ 10:1): 26–40 nm (17%)
  % of particles with hydrodynamic radius >100 nm, with iron (Fe2+ 8:1): (25% and 1%, respectively, not shown)
[2]
  % of particles in the monomer range (hydrodynamic radius 1.6–2.1 nm), with iron (Fe2+ 6:1) and BIPY: 76%
  % of particles in the monomer range (hydrodynamic radius 1.6–2.1 nm), with iron (Fe2+ 6:1) and DFO: 93%
  % of particles with hydrodynamic radius 2.2–2.9 nm (smaller oligomers), with iron (Fe2+ 6:1) and deferiprone: 95%
  % of particles with hydrodynamic radius 6.0–8.5 nm (oligomers), with iron (Fe2+ 6:1) and BIPY: 24%
  % of particles with hydrodynamic radius 6.0–8.5 nm (oligomers), with iron (Fe2+ 6:1) and DFO: 7%
  % of particles with hydrodynamic radius 8.5–14 nm (oligomers), with iron (Fe2+ 6:1) and deferiprone: 5%
  % of particles with hydrodynamic radius 8.5–14 nm (oligomers), with iron (Fe2+ 8:1) and DFO: (8.5–14 nm, 100%, Fig 3B)
